Source: the supplement of paper PMC10567573

B1: SAT2 (parent)
chain: GYGIYYFIYSTWKGRTIYLEDIYV
B2: TRIM55 (parent)
chain: YKSFSKEQQTMDNLEKQLICPICL

Variants of: B1
Test: protein stability index of a GFP-peptide fusion (GPS, HEK-293T) (PSI 1-6); higher = more stable
Conditions: c terminus: a fixed tail appended
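Also: lentivirally expressed fusions sorted by FACS into six bins by GFP to DsRed ratio, PSI derived from sequencing read proportions per bin multiplied by bin number.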

Protein stability index of substitutions, site by site:
S10: W 2.26 | N 2.55 | E 3.09 | M 3.91 | C 2.53 | Q 2.29
L19: G 3.7 | S 3.57 | H 2.98 | N 1.73 | F 2.37 | Y 4
Y6: A 2.88 | Q 3.44 | E 2.64 | F 3.09 | L 1.83 | R 3.12 | C 2.94
V24: E 2.6 | G 2.6 | I 1.48 | A 2.62 | K 3.94 | F 2.91 | M 1.63 | S 2.83 | P 2.3
Y23: F 2.37 | L 1.08 | H 3.07 | W 2.35 | N 3.18 | A 2.89 | M 2.71 | C 2.65
Y9: V 1.67 | G 2.77 | T 2.78 | M 3.46 | C 2.94 | L 2.57 | N 2.2 | D 3.06 | S 1.59
Y18: F 3.01 | T 2.92 | S 2.33 | I 1.92 | A 1.71 | K 1.88 | V 3.04 | M 2.33 | C 1.89
I22: Q 1.86 | S 3.3 | C 2.41 | E 2.92 | H 2.55
Y2: S 3.01 | N 3.27 | M 2.92 | H 3.91 | V 2.26 | P 1.91 | I 3.75 | F 1.06
Y5: K 2.61 | C 2.85 | T 2.53 | G 3.41 | W 2.09 | I 2.59 | L 2.15 | R 2.39 | D 2.62 | H 2.42
I4: W 2.71 | N 3.27 | G 1.88 | H 2.53 | D 2.92 | C 3.26 | V 1.71 | M 3.54 | A 3.19
T16: N 1.86 | R 1.69 | S 3.8 | L 3.32 | G 3.31 | C 2.83 | W 2.95 | A 3.27 | E 2.53
T11: Q 2.72 | I 2.78 | M 3.99 | S 2.44 | H 3.48 | D 3.32 | V 3.88 | N 4.08 | C 4.22 | F 2.43 | R 2.28
I8: C 1.7 | A 1.76 | D 3.24 | Y 3.28 | R 3.57 | E 3.68 | S 3.1 | Q 1.27 | H 2.93
I17: V 2.27 | F 3.52 | R 1.72 | G 2.82 | K 3.66 | E 2.77 | W 2.17 | P 2.91 | A 3.11 | M 1.75
G1: C 1.66 | L 3.6 | Y 3.1 | I 1.2 | M 3.54 | S 2.41 | H 2.72 | F 2.13
K13: R 3.04 | E 3.58 | P 1.99 | Y 1.48
D21: I 3.08 | A 2.28 | P 2.44 | E 2.34 | R 1.47 | L 2.9 | T 1.75 | N 2.74 | M 3.04
G14: Y 3.58 | I 2.04 | Q 3.24 | T 2.34 | L 2.47 | S 2.5 | R 3.28 | W 2.43 | N 2.71 | C 5.03 | M 1.94
W12: N 3.5 | T 2.5 | S 4.37 | F 2.8 | E 2.55 | K 2.65 | P 2.36 | M 4.12 | V 3.31 | D 2.25
G3: K 2.62 | E 2.58 | R 2.96 | S 3.29 | Y 2.19 | F 4.2 | C 2.12 | D 2.8 | P 2.7
R15: G 2.53 | L 3.07 | S 2.1 | E 3.72 | A 4.7 | W 3.58 | H 2.96 | D 2.9 | M 3.05 | N 2.37 | P 2.17 | C 3.31 | F 4.58
F7: D 3.03 | R 2.72 | Q 5.82 | E 2.37 | P 3.4 | V 3.39 | K 3.88 | A 2 | L 2.92 | S 2.8 | N 3.37
E20: S 3.32 | T 2.4 | A 3.56 | G 2.26 | R 3.97 | W 2.35 | P 2.91 | M 4.05 | V 3.13 | N 4.06 | L 2.1 | H 2.91

Variants of: B2
Test: as above
Conditions: c terminus: a fixed tail appended

Protein stability index: each site, then its substitutions
S3: D 2.47 | E 2.25 | V 2.07 | R 2.43 | H 2.45 | Y 1.44 | P 2.05 | Q 2.2 | I 1.94 | N 2.32 | W 2.18 | G 1.69 | A 2.02 | L 1.69 | M 1.85 | C 2 | F 1.65 | T 2.69 | K 2.44
S5: F 1.71 | G 2.13 | H 1.81 | P 2.07 | W 1.37 | L 1.34 | R 2.11 | Y 2.26 | M 2.11 | T 1.92 | I 1.96 | C 2.73 | V 1.99 | N 2.4 | A 1.89 | D 2.18 | E 2.26 | Q 2.19 | K 2.48
E7: F 1.87 | C 1.98 | D 2.29 | K 2.25 | I 2.4 | L 1.35 | G 1.53 | H 2.36 | A 2.08
K2: Q 1.59 | W 1.96 | V 2.05 | C 1.93 | R 1.73 | H 1.29 | L 2.52 | E 1.73 | M 2.1 | F 2.09 | N 2.12 | S 2.38 | A 2.02 | G 2.92 | T 1.83 | P 2.5 | I 1.56 | Y 1.95 | D 2.36
K6: Q 2.29 | P 2.05 | H 1.85 | N 2.04 | A 2.91 | I 1.85 | Y 1.98 | E 2.04 | S 2.14 | C 2.41 | F 1.3 | T 2.09 | W 2.51 | V 1.49 | R 2.63 | L 2.91 | M 1.57 | G 2.15
Y1: P 2.7 | D 3.46 | V 1.97 | G 2.35 | A 2.5 | Q 2.15 | M 2.5 | S 3.02 | F 2.02 | N 2.48 | I 1.99 | K 2.68 | R 2.83 | E 2.48 | T 2.62 | C 2.7 | W 2.17 | L 2.94 | H 3.12
F4: I 2.23 | Y 2.34 | R 2.66 | A 2.74 | L 2.27 | C 2.59 | M 2 | E 2.49 | H 2.8 | N 2.45 | Q 2.37 | K 2.63 | G 2.49 | D 2.43 | P 2.9 | S 2.64 | T 2.44 | V 2.24 | W 1.74
